# In US20130150294:
# Tested on: purified recombinant full-length Src from Upstate Biotechnology
substance,measurement,value
purified pig kidney Na+/K+-ATPase (PKE),Src-mediated tyrosine phosphorylation (commercial kinase assay kit),"the Na+/K+-ATPase kept Src in an inactive state, addition of ouabain restored the kinase activity"
